Results as given in patent US20220056072A1.

What was measured:
[1] = target: High Capacity NeutrAvidin Agarose Resin (UniProt P02701); assay: pull-down on NeutrAvidin Agarose resin, SDS-PAGE of the fractions
[2] = target: High Capacity NeutrAvidin Agarose Resin (UniProt P02701); assay: pull-down on NeutrAvidin Agarose resin, 1 uM protein, 2 hrs at 4 C; bound fraction from A280 of flow-through and wash

Sequence of UniProt P02701 (P02701 25-152): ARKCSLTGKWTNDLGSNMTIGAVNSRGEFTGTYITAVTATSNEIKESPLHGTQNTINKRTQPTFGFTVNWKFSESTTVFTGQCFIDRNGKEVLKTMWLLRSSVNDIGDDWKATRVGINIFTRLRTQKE

Row | percent unbound [1] [%] | binding efficiency (percent of protein bound to resin) [2] [%] | Substance
1 | 35 | 65 | IPL biotin-labeled mRuby3
2 |  | 10 | unlabeled mRuby3
